Measurements reported in US20230158117A1, “COMPOSITION FOR PREVENTION OR TREATMENT OF […] COMPRISING TRIGONAL GLUCAGON/GLP-1/GIP RECEPTOR AGONIST OR CONJUGATE THEREOF AND METHOD USING THE SAME” (HANMI PHARM. CO., LTD., priority 2020, published 2023).
Bridges are numbered along the chain shown (N, C = ends). Where no end group is shown, it is not given here. [ ]: non-standard residue; d: D form. Aib = CC(C)(N)C(=O)O

T1: human GIP receptor (Homo sapiens, UniProt P48546)
T1 construct: expressed in transfected cells; host or cells: Chinese hamster ovary (CHO)
T1 sequence (P48546 22-466): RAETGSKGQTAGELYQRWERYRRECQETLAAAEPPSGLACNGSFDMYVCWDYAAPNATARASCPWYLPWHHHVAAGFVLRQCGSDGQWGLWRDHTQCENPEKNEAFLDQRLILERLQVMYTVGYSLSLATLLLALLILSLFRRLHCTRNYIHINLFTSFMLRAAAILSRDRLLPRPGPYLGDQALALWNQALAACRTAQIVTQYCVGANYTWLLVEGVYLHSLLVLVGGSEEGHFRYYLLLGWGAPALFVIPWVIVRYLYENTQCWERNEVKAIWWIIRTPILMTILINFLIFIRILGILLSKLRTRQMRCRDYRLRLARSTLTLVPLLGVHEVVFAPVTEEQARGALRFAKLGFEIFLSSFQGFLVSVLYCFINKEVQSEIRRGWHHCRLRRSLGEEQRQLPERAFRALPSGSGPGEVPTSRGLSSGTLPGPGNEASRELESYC


Legend:
[1] = target: T2, human GCG receptor (Homo sapiens, UniProt P47871); assay: In vitro activity (cAMP accumulation, LANCE cAMP kit) in CHO cells expressing human GCG receptor; type: cell-based; conditions: long-acting conjugate, relative potency from cAMP EC50 compared to human GCG
T2 construct: expressed in transfected cells; host or cells: Chinese hamster ovary (CHO)
Procedure: (§1) Activities of the triple agonists and the long-acting conjugates thereof respectively prepared in Examples 1 and 2 were measured using transformed cell lines in which a GLP-1 receptor, a glucagon (GCG) receptor, and a GIP receptor were transformed by way of a method of measuring in vitro cellular activities.
(§2) The cell lines were transformed such that genes for the human GLP-1 receptor, the human GCG receptor, and the human GIP receptor were each expressed in Chinese hamster ovary (CHO), and were suitable for measuring activities of GLP-1, GCG, and GIP, respectively. Therefore, the activity for each part was measured using each of the transformed cell lines.
(§3) For measurement of the activity of the triple agonists and the long-acting conjugates thereof respectively prepared in Examples 1 and 2 to GCG, human GCG was subjected to a 4-fold serial dilution from 50 nM to 0.000048 nM, and the triple agonists and the long-acting conjugates thereof respectively prepared in Examples 1 and 2 were subjected to a 4-fold serial dilution from 400 nM to 0.00038 nM. A cultured solution was removed from the cultured CHO cells in which the human GCG receptor was expressed, and each of the serially diluted substances was added to the CHO cells in an amount of 5 μL. Then, a buffer solution including cAMP antibody was added thereto in an amount of 5 μL and cultured at room temperature for 15 minutes. Thereafter, a detection mix including a cell lysis buffer was added thereto in an amount of 10 μL for lysis of the cells, followed by reaction at room temperature for 90 minutes. Upon completion of the reaction, the cell lysates were applied to a LANCE cAMP kit (PerkinElmer, USA) to calculate EC50 values via accumulated cAMP, and the values were compared with each other.

[2] = target: T1, human GIP receptor; assay: In vitro activity (cAMP accumulation, LANCE cAMP kit) in CHO cells expressing human GIP receptor; type: cell-based; conditions: long-acting conjugate, relative potency from cAMP EC50 compared to human GIP
Procedure: as §1, §2
as §3, with “GIP,” for “GCG,”, “GIP” for “GCG”

[3] = target: human GLP-1 receptor (Homo sapiens, UniProt P43220); assay: In vitro activity (cAMP accumulation, LANCE cAMP kit) in CHO cells expressing human GLP-1 receptor; type: cell-based; set-up: expressed in transfected cells; host or cells: Chinese hamster ovary (CHO); conditions: long-acting conjugate, relative potency from cAMP EC50 compared to human GLP-1
Procedure: as §1, §2
as §3, with “activity of each” for “activity”, “GLP-1,” for “GCG,”, “GLP-1” for “GCG”

[4] = test system: hyperlipidemia hamsters; assay: Therapeutic effect on hyperlipidemia in fructose-fed hyperlipidemia hamsters; type: in vivo, Golden Syrian hamsters; conditions: 219.2 nmol/kg, QW; comparative example; FIG. 1
From the text: Golden Syrian hamsters (hereinafter referred to as hyperlipidemia hamsters) were fed with fructose for 2 weeks to induce a hyperlipidemia model. Among the triple agonists prepared in Example 1, SEQ ID NO: 42 (1.6 nmol/kg, 3.1 nmol/kg, Q2D) was selected, and the long-acting conjugate of the triple agonist having SEQ ID NO: 42 was repeatedly administered to the hamsters induced with hyperlipidemia for 3 weeks by subcutaneous administration. As a comparative example, therapeutic effects of evolocumab (219.2 nmol/kg, QW), as a conventional therapeutic agent, on hyperlipidemia were measured.

Chain of human GLP-1 receptor (P43220 24-463): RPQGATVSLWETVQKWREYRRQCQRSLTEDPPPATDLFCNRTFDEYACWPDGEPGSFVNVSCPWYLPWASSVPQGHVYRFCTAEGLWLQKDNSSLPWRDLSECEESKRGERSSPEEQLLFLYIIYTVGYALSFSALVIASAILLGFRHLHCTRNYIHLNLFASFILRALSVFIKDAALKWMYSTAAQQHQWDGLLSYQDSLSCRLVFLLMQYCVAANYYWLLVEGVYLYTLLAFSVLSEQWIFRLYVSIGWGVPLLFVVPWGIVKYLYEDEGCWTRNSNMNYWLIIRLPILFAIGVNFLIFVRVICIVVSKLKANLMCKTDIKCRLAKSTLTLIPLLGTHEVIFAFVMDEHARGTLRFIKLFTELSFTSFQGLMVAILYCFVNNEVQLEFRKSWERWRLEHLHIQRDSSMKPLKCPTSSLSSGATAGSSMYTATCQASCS

| In vitro activity relative to native peptide (%) vs. Glucagon [1] [%] | In vitro activity relative to native peptide (%) vs. GIP [2] [%] | In vitro activity relative to native peptide (%) vs. GLP-1 [3] [%] | Molecule | effects on total blood cholesterol level and blood LDL level [4] |
| --- | --- | --- | --- | --- |
| 13.5 | 0.6 | 2.1 | 43 (Y[Aib]QGTFTSDYSKYLDEKRAKEFVQWLLDHHCSSGQPPPS; bridge 16-20) [compound 43] | – |
| 1.7 | 6.6 | 6.7 | 77 (Y[Aib]QGTFTSDYSKYLDEKAAKDFVQWLLDHHPSSGQPPPSC; bridge 16-20) [compound 77] | – |
| 6.9 | 0.7 | 15.4 | 50 (H[Aib]QGTFTSDYSKYLDEKRAKEFVQWLLDHHPSSGQPPPSC; bridge 16-20) [compound 50] | – |
| 23.1 | 1.2 | 3.1 | 42 (Y[Aib]QGTFTSDYSKYLDEKRAKEFVQWLLDHHPSSGQPPPSC; bridge 16-20) [compound 42] | – |
| 4.0 | 0.3 | 0.3 | 96 (Y[Aib]QGTFTSDYSKYLDEKRAKEFVQWLLDHCPSSGQPPPS; bridge 16-20) [compound 96] | – |

The next lines start with the molecule.

| Molecule | In vitro activity relative to native peptide (%) vs. Glucagon [1] [%] | In vitro activity relative to native peptide (%) vs. GIP [2] [%] | In vitro activity relative to native peptide (%) vs. GLP-1 [3] [%] | effects on total blood cholesterol level and blood LDL level [4] |
| --- | --- | --- | --- | --- |
| 21 (Y[Aib]QGTFTSDYSKYLDECRAKEFVQWLLDHHPSSGQPPPS; bridge 16-20) [compound 21] | 1.6 | 0.2 | 0.1 | – |
| 22 (Y[Aib]QGTFTSDYSKCLDEKRAKEFVQWLLDHHPSSGQPPPS; bridge 16-20) [compound 22] | 0.9 | 0.5 | 0.1 | – |
| evolocumab (antibody, chains of the INN, looked up, V domains shown, conventional therapeutic agent for hyperlipidemia) VH: EVQLVQSGAEVKKPGASVKVSCKASGYTLTSYGISWVRQAPGQGLEWMGWVSFYNGNTNYAQKLQGRGTMTTDPSTSTAYMELRSLRSDDTAVYYCARGYGMDVWGQGTTVTVSS VL: ESALTQPASVSGSPGQSITISCTGTSSDVGGYNSVSWYQQHPGKAPKLMIYEVSNRPSGVSNRFSGSKSGNTASLTISGLQAEDEADYYCNSYTSTSMVFGGGTKLTVL | – | – | – | negligible effects |
